Laboratory results from the DeepSol protein solubility set.

Assay: soluble on expression in E. coli; label from the status in PepcDB or PDB records

MTDARTTVVVITHNRCAEVLRTLDRLAELPERPAVIVTDNGSTDGTAAAVARHHPGVRLLRSGRNLGAVGRNLAVRQVTTPYVAFCDDDSWWAPGSLSGAADLLDRYPAVGSVTARILVEPEGTEDPIVEELRDSPVPRPDWLPGPALGSFLAAATVLRTDAFRAAGGFHPRLWLGGEEELLAADLAANGWWLTYAGQLTIHHHPSGVRDSTVRRSHGIRNTLWFTWLRRPVGPALRRTLHLARTVPRDTASLRAFAEATAALPWVLRERRVLPPEVEARLRALEPAQRDSTARSYTGLEHHHHHH
soluble on expression in E. coli: not soluble

MAHHHHHHMGELFSIKNLFICSNERSVEELRTAMEGLLKKERAEGAGGGEKEAKEETHPGGKKYEMIKDYLDANKNNVLHFAIYGNNMNNVKFIIENTNLINSINSEEQNGLIISVLNRNTQISKYLIEQNIDYNQKDKHKANALLYSLITQNYEIFNLLMEKKNIDINVNSFEKGNLLSVSIFERNIHVLKKLFNKFICPFVEGSVYPHPLLYITYSSDNELLFLYLTYCMYYCTKDDALYKINTANFDHSREEIYVDLDHRQVICSIWDNSTYDLSAFKDVLNMTDEDGTPLCSTCVNNGNSLGKNIFDYFSAPS
soluble on expression in E. coli: not soluble

MSLENLNIENWPVDRLHHSEHATRRNEDAIPRMVDALRMFGFRIPLLVTGAGEVVDGHLRLKAALVMGMASVPVIVVDDMTPTQVRTFRLLINRSATWAEWDDEALRVELASLRDYGVDVTMTGFADAELDAFLQGVSLAGESDPDMVPPLPETPTSRPGDVWNMGGHRLLCGDSTSVEDVVRLMAGEQADMLWTDPPYNVDYSGKAGKIRNDKMSPEDFDAFLLRLLSRSYEALADGAAAYVAHSEAGGGTAFRKAFAHAGYKLASCLIWRKHQLVLGRGDYHWQHEPILYGWKPTGKHRWYGNRKHTTLLEHFAGQTVLPAGEGVWQVATGDAVLLIRGQDVTVEEVSTSILAVAKPARSELHPTMKPVALVERMVANSSPRGGLVLDPCGGSGTTLIACERMGRRCNTMELDPRFADVIVRRWEEVTGKTAVLEGGASFADVPLAREVAHEGHHHHHH
soluble on expression in E. coli: soluble

MKTPTRVSFEKKIHTPPSGDRDAERSPPKKFLRGLSGKVFRKTPEFKKQQMPTFGYIEESQFTPNLGLMMSKRGNIPKPLNLSKPISPPPSLKKTAGSVASGFSKTGQLSALQSPVNITSSNKYNIKATNLTTSLLRESISDSTTMCDTLSDINLTVMDEDYRIDGDSYYEEDSPTFMISLERNIKKCNSQFSPKRYIGEKCLICEESISSTFTGEKVVESTCSHTSHYNCYLMLFETLYFQGKFPECKICGEVSKPKDKDIVPEMVSKLLTGAGAHDDGPSSNMQQQWIDLKTARSFTGEFPQFTPQEQLIRTADISCDGFRTPRLSNSNQFEAVSYLDSPFLNSPFVNKMATTDPFDLSDDEKLDCDDEIDESAAEVWFSKTGGEHVMVSVKFQEMRTSDDLGVLQDVNHVDHEELEEREKEWKKKIDQYIETNVDKDSEFGSLILFDKLMYSDDGEQWVDNNLVILFSKFLVLFDFEEMKILGKIPRDQFYQVIKFNEDVLLCSLKSTNIPEIYLRFNENCEKWLLPKWKYCLENSSLETLPLSEIVSTVKELSHVNIIGALGAPPDVISAQSHDSRLPWKRLHSDTPLKLIVCLNLSHADGELYRKRVLKSVHQILDGLNTDDLLGIVVVGRDGSGVVGPFGTFIGMINKNWDGWTTFLDNLEVVNPNVFRDEKQQYKVTLQTCERLASTSAYVDTDDHIATGYAKQILVLNGSDVVDIEHDQKLKKAFDQLSYHWRYEISQRRMTPLNASIKQFLEELHTKRYLDVTLRLPQATFEQVYLGDMAAGEQKTRLIMDEHPHSSLIEIEYFDLVKQQRIHQTLEVPNL
soluble on expression in E. coli: not soluble

MGSDKIHHHHHHMNLSMISASVTMGELQKKLDTLSHNIANSNTTGYKRREASFSDLLFQQVNTNKATQYETGRLTPNGIRVGSGAKVSQTALRMEQGTLTTTDRALDFAIANPSSFFEIETVVDGNPVTRLTRDGAFYLTANPNNDNLLQLVTQNGDYLLDSAGNRINIPATFEEITLTDQGTLQVTMPNGANVQAAQLQLIQVMKPQLLEAVGGNMFQLPDLAALGFAENEVYAAVGAGGGAVVQGTLEGSNVDIGREMTDLIETQRNYQFNARSVSMADQMMGLVNGLRR
soluble on expression in E. coli: not soluble

MSPIDEFTYIKQNKIVYDSNSLIQLYFPIMGSDAMALYDYFVHFFDDGIRRHKFSEVLNHLQYGMPRFQDALVMLTALDLLTVYQATGTYLVKLNQAMSNELFLSNPIYRRLLEKRIGEVAVAELDMKIPKNARDISKKFTDVFSDLGQPKQEVNRSKNVFDLESFKRLMMRDGLRFNNEKDDVLGIYSVSELYHLNWYDTYQLAKQTAINGMIAPQRMKVQQNEGQHIKDNQSFTNNEKVILRESKNDSALVFLEKIKRSRKAVTTSGEKTLLEDLAKMNFLDEVINVMVLYTLNKTKSANLNKAYIMKVANDFAFQNVMTAEDAVLKIRDFSDQKVRTKTETKKKQSNVPEWSNPDYKDEVSPEKEIELEQFKTDALKRLERLGKDGES
soluble on expression in E. coli: not soluble

GMNIEKTRFCINRKIAPGLSIEAFFRLVKRLEFNKVELRNDMPSGSVTDDLNYNQVRNLAEKYGLEIVTINAVYPFNQLTEEVVKKTEGLLRDAQGVGARALVLCPLNDGTIVPPEVTVEAIKRLSDLFARYDIQGLVEPLGFRVSSLRSAVWAQQLIREAGSPFKVLLDTFHHHLYEEAEKEFASRIDISAIGLVHLSGVEDTRPTEALADEQRIMLSEKDVMQNYQQVQRLENMGYRGIYAFEPFSSQLASWSEAEIEEQINRSVSLLLQ
soluble on expression in E. coli: soluble

MSLSISFNNIPSALRVPLTYIEFDNTKAVSGPPTALHKVLMLGTKLATGSAKAGEAVRVSAYAQAKTLFGRGSQLAEMVKTFKAHNSTLDLWVLPLDEAPSGAKATGSVQITGTATQAGTFSLMIAGNNYKTAVTSGDTADVVAGKLQKLIAADQDVPVVATVAGNTITLTCRFKGETGNEIDLRCNYYSGEAFPEGLKATITDMKNGAVNPDMSVAITGLGAEWWNYIINPFTDTESLNLLRADLVKRWGPLKQIDGICFMAKRGTHAEVTTFAEQRNDYLFSLLATHKAPQPAYLWASAYAAVVAGSLAIDPARPVQTLVMDLLPPSMSDRWDLPERNTLLYSGVSTYTVNAGSQPQVEAAITMYRKNAFGDNDESYLYVETIATLSYLRYAIRSRITQKFPRHKLANDGTRIGPGQAIVTPKIIRNELLALFTELEFAGLVEDFEQFNQTLFVERDSNNPCRVNVLSNENLVNQFRIYAHAIQFILEGHHHHHH
soluble on expression in E. coli: soluble

MIVPYSVEDILKDGCFLERAEIDRLLDRLRTKKNLILQGPPGTGKTWLAKRLAFALMGQKDDSKVRAVQFHPNLSYEDFVRGWRPTGEGKLSLADGVFMEAIKAASKDPSSKFVVVIEEINRGNPAQIFGELLTLLEAGKRTPNEALELCYPDADGKRRPVHIPENLYVVGTMNIADRSLALVDLALRRRFAFVGLEPRLGQVWRDWVVKECAVDPLEHHHHHH
soluble on expression in E. coli: not soluble

MRAMRLVEIGKPLKLEDIPIPKPKGSQVLIKIEAAGVCHSDVHMRQGRFGNLRIVEDLGVKLPVTLGHEIAGRIEEVGDEVVGYSKGDLVAVNPWEGEGNCYYCRIGEEHLCDSPRWLGINYDGAYAEYVLVPHYKYLYKLRRLSAVEAAPLTCSGVTTYRAVRKASLDPSKTLVVIGAGGGLGTMAIQIAKAVSGATIIGVDVREEALEAAKRAGADYVINASSQDPVSEIRRITQGKGADAVIDLNNSEKTLSIYPYVLAKQGKYVMVGLFGADLKYHAPLITLNEVQFIGSLVGNQSDFLGIMSLAEAGKVKPMVTKTMKLEEANEAIDNLENFKAVGRQVLVP
soluble on expression in E. coli: soluble

MDKLGENLNKALNKLKAAAFVDKKLIKEVIKDIQRALIQADVNVKLVLKMSKEIERRALEEKTPKGLSKKEHIIKIVYEELVKLLGEEAKKLELNPKKQNVILLVGIQGSGKTTTAAKLARYIQKRGLKPALIAADTYRPAAYEQLKQLAEKIHVPIYGDETRTKSPVDIVKEGMEKFKKADVLIIDTAGRHKEEKGLLEEMKQIKEITNPDEIILVIDGTIGQQAGIQAKAFKEAVGEIGSIIVTKLDGSAKGGGALSAVAETKAPIKFIGIGEGIDDLEPFDPKKFISRLLGMGDLESLLEKAEDMVDEKTEESIDAIMRGKFTLNELMTQLEAIENMGSMKKILSMIPGFGGAMPKELSHLTEAKIKKYKVIISSMTKEERENPKIIKASRIRRIARGSGTTENDVREVLRYYETTKNAIDKLHHHHHH
soluble on expression in E. coli: soluble

MGSDKIHHHHHHMSKYDVSISVIMGVYNQNDEKVLREAVDSILNQTFKDFEFIIYDDGSQPDAALILEKIKKIDPRIVLIGQEKNHGLAFSLNACIEQARGKYIARMDADDISDPNRLKVQYDFLEKNPQYSWCGCNARLLDENGIWGTREMPEAPAEKDYLKYSPYIHPTVMYRASLFEETDGYKVSEETLLCEDYEIFMRLRQMGKRGYNIQETLFTYREDSDSYRRRDFKRGINEAKVRFENFNKLHVLFPTGWVYVFRPIIACLVPREMIYILKRMKTRKKPWKKELESELIITGK
soluble on expression in E. coli: not soluble

GPGSMHGIRRWRVRLVNRACQSLSGSLVFSACRHCATVPTEDDVRKAYKILGVHTSATLTDVKKRYGDLAKEHHPDVSNSSAVSSTNRMTDINNAYNTVKQFHQAGRRLFEATRAPNASGASDSSSSSYYSKQDSAYQPWYEDMDPLMYELMWEEMRRQNEEDSFARNMHAEAFYRPNDRWRPPRGNASARPRQSSGSSDGRQSHAGKKSPSSTTWPEEQVKAMVNMYQDGKSFEFIANALGKESAAAVLEEFNRWSSDNQPQRRKGAKPHHARRHRYHGGHGPFYHTESPDEVPFELYEMMEEEPYYDGSSEESGDPFGYYSGDGEAYDVPYTHATPFYGVHQMNGGPAPYGHFEGGVGREYNSSRKMSHRPMRNHRGGPPNKNRRYGGTSSNHKGSGGGFQSGNGKSHGSGGGKT
soluble on expression in E. coli: not soluble

MSLSSILECIRTVGRGERGRKPLNFDQAFRVMDEYLNGECGDDQMAMLLMLIRVQNETQQEIAGFVKAFQSRMPAIGADIDWPCYAGKREAAGQPWHLLAAKILADNGHKVLMHGYHDRQPGRLHAEDYLDKFAIKKAESAEDAKRVLETQNIVYLPLSAFAPQAETMIGWKNRYGLRTPINTVVRALNPGQATVGIRGSFHPGFQQLHAEVEYEIGQTAHAVVSFKGQSGESEYNPKVSQTVWLSQPSGVTSHYWTEQMLSEVPMPTVCPFGTEETDMNQMANTVLTTIAVVLFAEMHDREQAFERAFSYWASYCAAEGHHHHHH
soluble on expression in E. coli: soluble

MRVVAAHENLDFDALGSMVLAGRLYPGSVLALVGGVEGVLREVLPLLEDRLDLVPASEIPLDRVREVVLVDNARPERLGPLAALVGRVPFLVYDHHPRTPGDVPAVGGRVAPVGATVSLLVPLLLERGVALDPLEATLAYAGLWEDTGGFSFPSTTPEDLEAAGHLLRQGAEVARVRDWVRPRFGEEAREILSQLLKTAHLVERKGFRLLVARAREKGYVPALAPLAHTLLDLYEADGVLLALRLGGDTLLIARSKARLDVGRWLGALGGGGHARAAFARVRGKGRALARLLETLEAFLDPEPTLGQAMTAPVETLRPTSVREALRQLEERGYGAMPVVEPLGEGVRVLGLARRRDLRKAVRLGFGDHPVEGFLVRAVVLPPSTPLSQVEPRLREAGGRVLVGERAGEGWRLLGIYTRTDLYRSAPRPEPTLAERVLKALPSGVFRVVEALREAFPEGVYLVGGAVRDALLGRSGPDLDLAVGPGVEVARVAQFLVDRFGGSYGLHYAFGTARVRLPFGLVVDLAESREEVYPYPGALPEVRRAPIARDLERRDYSVNAMAVDLGGLAFLDPYGGLRDLEARLLRPLHPLAFVEDPTRVVRGARLAARLGFRFAEEVPRLLAPALLPEVVAGASRSRLREELLLTLEEEAFYRALALLAELGALKALYGLDLPPEAPFLRLRAEEGLGEARLLLLLFHQKDPLERAAWLALPGRLREGLALLLAASRGEEVPKEALGREPLRAAFLALFPEKEAWLKAERRVLMGRDLLKLGLKPGPKVGEILRRVAEARRRGEVRSFEEELALARKLLGDGTLALPE
soluble on expression in E. coli: soluble
